Measurements taken from the Human Domainome abundance scans (Beltran et al. 2025).

B1: Friend leukemia integration 1 transcription factor, residues 116 to 197; numbered along this chain, Q01543 (parent)
chain: NMTTNERRVIVPADPTLWTQEHVRQWLEWAIKEYSLMEIDTSFFQNMDGKELCKMNKEDFLRATTLYNTEVLLSHLSYLRES
B2: Transcription factor SOX-4, residues 60 to 127; numbered along this chain, Q06945 (parent)
chain: KRPMNAFMVWSQIERRKIMEQSPDMHNAEISKRLGKRWKLLKDSDKIPFIREAERLRLKHMADYPDYK

Variants of: B1
Assay: abundance fitness (aPCA) (normalised: wild type 0, dead -1); higher = more abundant; growth selection in yeast, the domain comes from the species named
Details: Homo sapiens

Abundance fitness of substitutions, site by site:
L76: R -0.723, V -0.432, Q -0.879, S -0.553, F -0.555, G -0.28, M -0.218, H -0.841, N -0.799, E -0.794, P -0.7, I -0.391, T -0.916
Y78: V 0.124
S77: T 0.032, P -0.216
L79: F -0.657
E70: P -0.859, D 0.092, M -0.239, K -0.167, W -0.944, L -0.507, T -0.213, Q -0.078, A -0.598, C -0.448, V -0.363, R -0.335, N -0.124, S -0.107, H -0.001, I -0.726
L72: G -1.01, R -1.12, I 0.063, C -0.372, F -0.231, A -0.463, M -0.099, Q -0.949, W -1.1, K -1, P -0.78, T -0.814, V -0.6
S74: Q -0.405, E 0.271, A 0.029, R 0.042, L -0.28, T -0.076, C -0.101, G 0.026, W -0.561, K 0.133, H -0.066, M -0.049, F -0.404, V -0.567, D 0.014, Y 0.134, P -0.417
L73: V -0.085, F -0.1, N -0.631, C -0.057, P -0.854, K -0.199, Y -0.281, M -0.061, I -0.21, H -0.173, E -0.343, R -0.144, A -0.133, W 0.039, T -0.044, G -0.27
R80: S 0.103
E81: D -0.092
V71: Q -0.035, N -0.391, T -0.145, P -0.401, K 0.051, E -0.368, W -0.047, M -0.065, S -0.147, C 0.094, G -0.677, F -0.215, A -0.006, Y -0.239, R 0.02, I 0.263, L -0.093
S82: P -0.125, F -0.112
H75: Y -0.201

Variants of: B2
Assay: as above
Details: Homo sapiens

Abundance fitness: each site, then its substitutions
I13: F -0.21, Y -0.456, W -0.531, N -0.164, P -0.484, K -0.195, C -0.29, V -0.186, M -0.228, R -0.401, H 0.027, E -0.163, Q -0.12, L -0.127, T -0.235, G -0.222
P3: H -0.055, M -0.163, N -0.108, E 0.072, G -0.166, W -0.561, Y -0.182, Q -0.048, I -0.416, S -0.122, K -0.103, F -0.186, A -0.114, R -0.149, L -0.216, V -0.136
A6: N -0.943, F -0.671, G -0.079, Q -0.617, E -0.656, M -1.01, I -0.794, R -0.713, W -0.896, T -0.797, P -0.111, V -0.507, C -0.692, S -0.495, H -1.12, L -0.843, D -0.607, K -0.791
K17: D -0.459, H -0.426, G -0.783, F -0.353, A -0.765, C -0.857, E -1.1
M8: A 0.023, D 0.088, W -0.204, F -0.133, E 0.232, T -0.068, V -0.178, Q 0.193, I -0.181, H 0.042, S -0.072, L -0.084, C -0.278, R -0.176, G 0.025, P -1.01, K -0.205, N -0.242
R16: I -0.216, S -0.174, P -0.234, M -0.212, D -0.223, Y -0.416, Q -0.023, C -0.206, A -0.011, G -0.254, T -0.077, L -0.154, F -0.368, V -0.111
N5: Q -0.585, L -0.589, V -0.828, R -0.879, K -0.553, D -0.032, T 0.095, P -0.546, W -0.439, G -0.278, H -0.632, A -0.559, S 0.016, I -0.665, Y -0.472, M -0.842
Q12: W -0.662, I -0.101, T -0.166, A -0.138, F -0.494, V -0.434, R -0.267, L -0.194, N -0.015, C -0.07, H -0.116, D 0.179, P -0.812, S -0.134, E 0.05, Y -0.343, G -0.265
M4: L -0.105, H -0.589, A -0.227, E -0.202, V -0.068, P 0.002, C -0.709, T -0.077, G -0.311, N -0.265, F -0.033, Q -0.412, I 0.047, Y -0.236, D -0.28, S -0.492
R2: F -0.113, H -0.305, T -0.457, S 0.003, L -0.275, P -0.519, A -0.08, G -0.121, D -0.053, I -0.012, W -0.164, M -0.088, Q -0.039, K -0.135, Y -0.374, N -0.154, E -0.362, V -0.08
K1: S -0.011, C -0.206, A -0.193, Q -0.788, W -0.336, M -0.214, Y -0.116, D 0.048, L -0.347, P -0.549, E -0.317, G -0.054, T -0.379
S11: W -0.608, P -0.99, I -0.737, H -0.703, L -0.432, R -0.63, Y -0.29, V -0.529, N -0.762, T -0.69, D -0.758, C -0.206, F -0.217, E -0.031, M -0.394, Q -0.323
R15: D -0.752, T -0.345, Q -0.3, A -0.38, W -0.502, I -0.25, C -0.357, V -0.495, M -0.177, K -0.022, F -0.464, Y -0.375, L -0.512, H -0.428, E -0.354, P -0.686, N -0.738, S -0.335
W10: V -0.621, F -0.155, R -0.649, L -0.999, E -0.964, T -0.958, Q -0.921, S -0.893, Y -0.554, G -0.954, M -1.08, P -0.751, A -1.03, C -1.03
V9: W -0.694, E -0.856, C -0.258, Q -0.76, F -0.482, A -0.473, R -1, P -0.617, I 0.066, K -0.978, M -0.266, H -0.733, T -0.38, S -0.803, L 0.037, N -0.609
